The text below walks through data of patent US20120252071A1 (ROCHE DIAGNOSTICS OPERATIONS, published 2012).

The data set concerns the molecule itself. Description: non-reducing SDS-PAGE after 16 h at 37 C without reducing agent (self-association by disulfide bonds). On the procedure:
Samples of T7 variants were prepared according to a procedure described in Example 4. T7 RNA polymerase and variants thereof were analyzed by gel electrophoresis on polyacrylamide gels containing sodium dodecylsulphate (SDS). Gradient gels (NuPAGE, 4-12%, Bis-Tris Gel, Invitrogen) were used. Typically, protein samples (0.26 mg/ml, 18 μl) were mixed with 6 μl of NuPAGE LDS (Lithium dodecyl sulfate; LDS may also be substituted by sodium dodecyl sulfate) sample buffer, (4×, Invitrogen). After heating for 2 min at 85° C., samples (20 μl) were applied on the gel. The total amount of protein in a single lane of the gel was between 1 μg and 3 μg. Gels were run in SDS Running Buffer (1×MES, Invitrogen) at 200 V for 1 hour.
Further, samples of wild-type T7 and T7 variants (0.2 to 0.3 mg/ml each) were incubated at 37° C. for 16 hours in 25 mM Tris/HCl, pH 7.5 (adjusted at 25° C.), 0.1 mM EDTA, 100 mM NaCl. Aliquots were removed and applied on the SDS gels under reducing conditions or under non-reducing conditions. After incubation a sample of each treated preparation was subjected to SDS polyacrylamide gel electrophoresis as described in Example 5. Results are depicted in FIG. 2 (reducing reagents absent) and FIG. 3 (10 mM DTT added).
With reference to FIG. 2 (reducing reagents absent), and in reference to Examples 5, 6, and 7, a stained SDS polyacrylamide gel is shown. […]

B1: T7 variant #8 [Cys125Ser, Cys347Ser, Cys492Ser, Cys515Ser, Cys723Ser, Cys839Ser] including His6-tag (enzyme)
chain: MNTINIAKNDFSDIELAAIPFNTLADHYGERLAREQLALEHESYEMGEARFRKMFERQLKAGEVADNAAAKPLITTLLPKMIARINDWFEEVKAKRGKRPTAFQFLQEIKPEAVAYITIKTTLASLTSADNTTVQAVASAIGRAIEDEARFGRIRDLEAKHFKKNVEEQLNKRVGHVYKKAFMQVVEADMLSKGLLGGEAWSSWHKEDSIHVGVRCIEMLIESTGMVSLHRQNAGVVGQDSETIELAPEYAEAIATRAGALAGISPMFQPCVVPPKPWTGITGGGYWANGRRPLALVRTHSKKALMRYEDVYMPEVYKAINIAQNTAWKINKKVLAVANVITKWKHSPVEDIPAIEREELPMKPEDIDMNPEALTAWKRAAAAVYRKDKARKSRRISLEFMLEQANKFANHKAIWFPYNMDWRGRVYAVSMFNPQGNDMTKGLLTLAKGKPIGKEGYYWLKIHGANCAGVDKVPFPERIKFIEENHENIMASAKSPLENTWWAEQDSPFCFLAFSFEYAGVQHHGLSYNCSLPLAFDGSCSGIQHFSAMLRDEVGGRAVNLLPSETVQDIYGIVAKKVNEILQADAINGTDNEVVTVTDENTGEISEKVKLGTKALAGQWLAYGVTRSVTKRSVMTLAYGSKEFGFRQQVLEDTIQPAIDSGKGLMFTQPNQAAGYMAKLIWESVSVTVVAAVEAMNWLKSAAKLLAAEVKDKKTGEILRKRSAVHWVTPDGFPVWQEYKKPIQTRLNLMFLGQFRLQPTINTNKDSEIDAHKQESGIAPNFVHSQDGSHLRKTVVWAHEKYGIESFALIHDSFGTIPADAANLFKAVRETMVDTYESSDVLADFYDQFADQLHESQLDKMPALPAKGNLNLRDILESDFAFA
notes: also called six-fold mutant; sextuple T7 variant; not shown: N-terminal His6-tag with linker
As for B1, the binding result is recorded as “no binding (tested: 2.9 µg of protein per lane)”.
